In patent US20090148863A1:

How the values were obtained:
[1] = target: protein A (PrA) from Staphylococcus aureus (Staphylococcus aureus) (UniProt P38507); test: UV-vis absorbance against time, slope of FIG. 3C
[2] = target: protein A (PrA) from Staphylococcus aureus (Staphylococcus aureus) (UniProt P38507); test: UV-vis absorbance change, 1.1 nM AgMMUA-IgG with about 100 nM PrA in PBS
[3] = target: protein A (PrA) from Staphylococcus aureus (Staphylococcus aureus) (UniProt P38507); test: UV-vis absorbance against time, simulation matched to the data of FIG. 3B
[4] = target: protein A (PrA) from Staphylococcus aureus (Staphylococcus aureus) (UniProt P38507); test: UV-vis absorbance, average of equilibrium and kinetic methods, three repeats
[5] = target: T-ZZ (transmembrane/translocation (T) domain of diphtheria toxin fused at its C-terminus with ZZ, a small portion of protein A) (UniProt P00588); test: single nanoparticle imaging on living cells with T-ZZ, value given in the summary
Chain of UniProt P00588 (P00588 234-410): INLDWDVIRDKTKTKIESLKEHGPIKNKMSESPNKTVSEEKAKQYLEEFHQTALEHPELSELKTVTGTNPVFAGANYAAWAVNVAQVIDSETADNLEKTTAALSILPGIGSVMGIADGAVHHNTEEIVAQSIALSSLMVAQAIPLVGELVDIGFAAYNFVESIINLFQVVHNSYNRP

[6] = target: T-ZZ (transmembrane/translocation (T) domain of diphtheria toxin fused at its C-terminus with ZZ, a small portion of protein A) (UniProt P00588); test: slope of FIG. 6B, 2.78 nM AgMMUA-IgG, T-ZZ at 0.21 molecules/um^2 on living cells
[7] = target: T-ZZ (transmembrane/translocation (T) domain of diphtheria toxin fused at its C-terminus with ZZ, a small portion of protein A) (UniProt P00588); test: counting single bound nanoparticles on living cells with T-ZZ against time (SNOMS, FIG. 6A)
[8] = target: T-ZZ (transmembrane/translocation (T) domain of diphtheria toxin fused at its C-terminus with ZZ, a small portion of protein A) (UniProt P00588); test: slope of FIG. 6A in the first 60 min, 1.39 nM AgMMUA-IgG, T-ZZ at 0.37 molecules/um^2 on living cells
[9] = target: T-ZZ (transmembrane/translocation (T) domain of diphtheria toxin fused at its C-terminus with ZZ, a small portion of protein A) (UniProt P00588); test: slope of FIG. 6A in the first 60 min, 2.78 nM AgMMUA-IgG, T-ZZ at 0.37 molecules/um^2 on living cells
[10] = target: T-ZZ (transmembrane/translocation (T) domain of diphtheria toxin fused at its C-terminus with ZZ, a small portion of protein A) (UniProt P00588); test: slope of FIG. 6A in the first 60 min, 5.56 nM AgMMUA-IgG, T-ZZ at 0.37 molecules/um^2 on living cells
[11] = target: T-ZZ (transmembrane/translocation (T) domain of diphtheria toxin fused at its C-terminus with ZZ, a small portion of protein A) (UniProt P00588); test: slope of FIG. 6A in the first 60 min, 11.12 nM AgMMUA-IgG, T-ZZ at 0.37 molecules/um^2 on living cells
[12] = target: T-ZZ (transmembrane/translocation (T) domain of diphtheria toxin fused at its C-terminus with ZZ, a small portion of protein A) (UniProt P00588); test: isotherm of the fraction of bound T-ZZ on living cells against AgMMUA-IgG concentration at equilibrium (SNOMS)

## AgMMUA-IgG nanoparticles (immunoglobulin G from rabbit serum covalently conjugated to 11.6 nm Ag nanoparticles carrying a mixed MUA/MCH monolayer) (antibody)
[1]
  kon: 120 M⁻¹ s⁻¹
[2]
  amount of AgMMUA-IgG nanoparticles bound with PrA at equilibrium: 0.14 nM
[3]
  koff: 5.4e-05 s⁻¹
[4]
  Ka: 1.9e+06 M⁻¹
[5]
  Ka: 4.3e+07 M⁻¹
[6]
  binding rate (molecules/min): 2.3
[7]
  Ka: 3e+07 M⁻¹
  koff: 0.0003 s⁻¹
  kon: 9000 M⁻¹ s⁻¹
[8]
  binding rate (molecules/min): 3
[9]
  binding rate (molecules/min): 5.3
[10]
  binding rate (molecules/min): 20
[11]
  binding rate (molecules/min): 27
[12]
  Ka: 4.8e+07 M⁻¹
